This passage reports protein production results from a protein production outcome set (Wang et al. 2014).

The data set is described as follows: label from the status in PepcDB records.
Take “MSCFYLDLLKIKDPSFMKRLDIQELEALAADIRAFLITSTSKSGGHIGPNLGVVELTIALHYSFNSPKDKFIWDVGHQSYVHKILTGRANQFGTLREHGGLDGFPKRKESIHDVFETGHSSTSLSAAAGMVIARDIKKEDFYVIPIIGDGALTGGMALEALNHIGDMGKDMIVILNDNDMSIAPNVGAIHNILGKLRTSDTSKQTKTNVDGAFFEELGFMYLGPIDGHDIEEVITNLELAKRAKGPVLLHIVTKKGKGYQPAELDSRGTWHGTGPYKVETGSFIKPAKRAASWSSVISNELIRLAEMDERIVAITPAMPVGSKLEKFAKAFPERFFDVGIAEQHATTMAAGLATQGMKPFLAIYSTFLQRAYDQLVHDVCRQKLNVVIGIDRAGLVGADGETHQGIFDISFLNSIPNMTISMPKDEVEARQLMDTAFSYNDGPFAIRYPRGEAPGVQVVESNTLIPIGQWETIIQPLDAVILTFGPTIELALKAAEQLEIEGYRVGVINARYIKPLDEALLHKILKQKIPILTVEESLLKGGFGASVLEFIEANNYRDVIMHRIGLPDEFISHGSVSIILESFGISTTGLVLKIKEMLAQSGKLRAKRL”: the protein production result was “failed”. “MKNFNDEEHNSQLTDEVLPEPEDARVIANILKAVGVESFDTRVVAQLVEFVYKYIGEVLELSKTFAQYAEREDIRQDDVKLAISSLLSKSFTQPPSRDVLLQLCRERNAVPLPVVDTYVGIQLPPKEFQLTTRNYQLKRKTTTESVASQELSEATGNISIGESSLQPNEEESNTMNT”: the protein production entry is given as “failed”. As for “MDRECERDPYYDDLKVAKRAIEQMEMVAMMEGIPKFCPCGGSIVDTRKDEKRYYQCEKFKDDRTDLMHIRKLWDKAMEEEVSSLRESVDYNRKKVLSHEYLIEEMQKELKAHRAEIVNVSKVVFRNPMAPKK”, the protein production entry was “failed”.

Take “MCHQLSKKTKKALDQELKRKTTLKNNLFSRYLLFRYSLALFFFVNLYWTFPLIYKPSVYVILPVSLLILIVLACAEQFKLYSLQEVYLRNTERVFKTQIVVQILLLIINIFPQQLSVAIPFFSNNMAAHVFLAVFQFLGLFICWYNLKRIKQIKNNEDKFYNRFYNHIEKYI”: the protein production result is “failed”. As to “MNARHARYPFLGDARDAVEEAGVDLARVVTEDDAVVERARERVVSALTDGTIGEPAATVSTRVEVLSYPVARVLVSIVDESVLVRKYATAEADAAYDRFTADESTDTDLKSVSDTTRVSRDTLLSEFDLRAHVHATPDAHTVDVPTYLLLASSLRDDDWRLVNRALDDGRVPVTDAELDTLIREAIRERVADGLPLSVPDQIADALDEPVAAIQDALADLDLTREIDTVVPELFPPCMKHLLDQVQRGDHLPHHARFAITSFLSNVGLSTDEIVDIYEVNPGFGEEMTRYQTDHIQGDSSPTEYTAPSCATMKAYGNCVNPDDLCDAINHPLSYYEVKLDDGDDDDLADWRDREDDDSPD”, the protein production entry was “failed”. “MTDNSQFHAASALVQAAHTVSVVGHLRPDADAIGSVAATVAALQQLGKDAVGAIGQLDSMPENLYTIPGASNIKFGDSLPESDLIIVVDCGSIERTGAFESIIVNNPDKVLVVDHHATNPGFGAVNLIDVEAESTTTILYDWFDAMSVQITPDIAHGLYAGLLTDTGCFRWGRPVMHDMAKELMEFGLDIRAISSALLDQTSVDDLRLVGQIVSRIELREAGPYTLAVLVADFDTINGRSRAVVEGLIEMVRAVEGADFGAVFKEYERGVYTVSLRSSNLSVASLAVHLGGGGHIPAAGYTARGTEIEALDTLIEATVTLGESLRSSAHVDVLEHHHHHH”: the protein production entry is reported as “not failed”. On to “MSGPSTYQPQSPLMKWLEQRLPIAGLVHSSFIAYPTPRNLNYWWTFGAILSMMLAVQIVTGIVLAMHYTPHVDLAFDSVERIVRDVNYGWLLRNMHAAGASMFFIAVYVHMLRGLYYGSYKAPREVLWILGVIIYLLMMATGFMGYVLPWGQMSFWGATVITNLFSAFPIVGDSIVTLLWGGYSVGNPTLNRFFSLHYLLPFVIAGVVVLHVWALHVTGQNNPAGVEPKTEKDTVPFTPYATLKDVFGMSCFLVFYSWFIFYMPNYLGDAENYVPANPGVTPPHIVPEWYYLPFYAILRSIPNKLMGVIAMFGAIIVLLFLPWLDSCKVRSSRYRPMAKRFFWAFVVTCLVLGWLGSKPAEGIYTTLGQVFTFFYFAYFLIVLPVLGRMEKTLPLPNSIAEDVLNKGKVAKAVAGLVAVLFAGGLMVGGVQPAKANEGGENPPSLQWSFAGPFGTYDRAQLQRGFKIYKEVCSNCHSLKLLQYRNLAEPGGPGFTVEQAKEIAAAAQIKDGPNDQGEMFERPGRLADTFHSPFPNEQAARAANGGAAPPDMSLLAKARTYPRGFPQFIFDFFTQFQEQGPNYIAALLQGYEDTPPEGFSLPDGSFYNKWYPGHSIKMPPPIQAGMVSYDDGTPETLEQYAKDISTFLVWASEPHMEARKRLGLQVMIFLVILSSLLYFVKRKVWSNVH”, for which the protein production result is “failed”.

As for “MEKQNLKNTEVNLIYGVDDDLDLPKKVLFGLQHIFAAFGGIIVVPLVIATSLGFDSKVTTALISASILGSGLATIIQAKGVGKVGARVACIMGTDFTFVSPAISVGSVLGLPGIIGATILGSLFEVILSFFIKPLMKFFPPLVTGTVVALIGLTLLPVSIDWAAGGAGSANYASLENLAVAMFVLVITLLLNNYGKGMISSASILIGIVVGYIVCIPLGLVDFTPVKEASWLSFPKILEFGVTFDAKAVMAFIPAYFVATIGTVGCLKAIGETSNIDIGDKRVAAGVLSDGVGSALGGLVGSCPNTSFSQNIGIISLTKVASRHVAVMAGILLVILGFLPKVAAIITGIPNPVLGGVGIMMFGTVAAAGIRTLSNIKLTERNLLIIAISMGLGLGVTFRPDVIHNLPEAIRMIFSSGISTGTIAALILNAVLKESPTSMEFENMYDEETKAS”, the protein production entry was “failed”. In the case of “MLPKRQLFLDRLNQALAWSQFSGVPGALLLIDLGLPAHLDGSPSLSPDAEENLEIIANRLQAYVRPHETLAHLNHHQFGLLLLDPDVQLRAEERAHGIQTLIRDRLAGFEGGAHIGIVPLTPETPATVLLQAAEAAAMTARSQQQGHLSLEASLEHHHHHH” it was “not failed”; in that of “MSRHPARTGEKTFFGHPFQLSTLFHIELWERFSFYGMQGILLIYLYYTADKGGLGIDKTLAGGIVGAYSGSVYLSTILGAWFADRVWGAEKTLFLSGIVVMLGHIVLAAAPGLYGLLIGLIFIALGSGGVKSTASSMVGALYEQDEMRPLRDAGFSIFYIAINIGGFLGPLLTGLLQENIGFHYGFGAAAVGMAFGLWRYSLGRKNLPHPTVPHPLSKGQGKTAAAVGITLIAALATAIKTGLVNLDNFSGILLSTVILAVIAYFARLLTNPRVSSDNKRHIIAYIPLFLTICMFWAVWFQIYTVATVYFDETVNRTIGSFTVPVAWKDSMQSLWVILFSGLMAAMWTKMGRKQPKTPLKFAMAVFVTGASFLGFVPFISSGTPMPIAVFALIVLAITIGELMISPIALSISTKIAPPLFKTQMVALNFLAFSLGFTLGGVLFEKGYQAGDEIGFYRLLFYIGAATGFLLLLLVPKLNKMLEGTD”, “failed”. Consider “MERRLTTILAADLSGYSRLMAADEEGTVTRLRHLFADIVRPDLSREGGRLIKTMGDGMLVEFASPVAALRSAVAILQQVARDQVETAPDTRMLFRVGIHLGDVISDGDDILGDAVNIAARLESLATPGGICISRSVHDQVRGKVDAELIELGPQPVKNIPDPVEVWRVGAEGIACAAEKPAVRAELPAVVILPFDNMSADPEQDFLADGIVEDVTTELSRFRTLTVIARNSAFAYKGSHKDVRQIAEELGVRYVVEGSVRRAGDRLRATAQLIDARTGAHVWADRWDRTMADLFDLQDELTAAILSGVEPELGAHERNLARRKPTDSLTAWEMCQKGYSEFTRYTDEGYSQAHAYYTRAIAADPDFALPHALLARLAWVKVITGRTRDPAAEISTGLDHAAQAIERDDRLEIGYVALGVLLAITGREQDAADALDKAEALNPNNAVLHFGRCHACLFMQRLDCDRLERAARTALRLNPKDPMAWGFWFQLGNAFTFRDIDAAEPEALAAYETACRFANADYFVFMATALKHAKLGNRDKAAHYLAQARERYPALTAEFWRRAFRFPIWSRWVAADEPNIQLLIDLGLPQK”, for which the protein production result was “failed”. With “MSLEKWRIYEELTNAVREFESINPVRLIPEVGTNFVYSLPLPYARSTKDVAGVKGRIVKYGNSVKAVGPVEFGASDHLARAVLTYMRFYPEYRSAINIRYSREIIEEIIEIAQERGFKVSFYDRREEPEEIKAKEGATIPWGIETAIKRIKERPDIIYHLGDVGKEPMILVFGRNPREVLEKIKMLIEGHHHHHH” the entry was “not failed”. In the case of “MSQPNFLLFITDQHRADHLGAYGNSQIRTPALDALARRGWLAERFYVASPICMPNRATLMTGRMPSAHGARHNGIPLSQRATTFVERLRQAGYGTALVGKSHLQNMTGNGPVWPRPQDPPAEGEAWAPEPGDYDQEWGPLWREDPAHDLATPFYGFSQVDLAVDHGDRVWGHYWRWLQREHPEVAAQAGPDHALPAPGFELVRAGQAWRTRVPESCSTTAYLGRRTMQALDGYAQRGQPFFIQCSFPDPHHPFTPPGKYWDMYRPEDVELPASFHASAAAGRQPPPHVQWMYAQRDSGRAVKHTPAMFACTEREAREAIALNYGSISHIDHTVGEVLAHLQRLGLADNTVVIFTSDHGDYLGDHQLLWKGPVHYQSVIRTPFIWADPAGAQGARSDALCSTTDIAPTILARAGLLPYNGIQGADLGALMRGEQAAPREAVLIEEEGQRVMFGFDKRVRMRTLQTGRYRMSVYHGVSWGELYDLREDPLELRNLWDEPGSAALRQDLLFQLAQNLIGHGETSPHPTALA” it was “failed”. In the case of “MRSWAIDLEEYLMSKALEGKSPGTVDRYRYELQRLLSYVNKAVRDITEGDISGYMRAYKAIRQVSNQTLKNVRAVYSSFFAWLRDRDRIRRNPMALVEAIKVLEHHHHHH” it was “failed”; in that of “MELIEVQEGKAKILIPKAESIYDSPVFYNPRMALNRDIVVVLLNILNPKIVLDALSATGIRGIRFALETPAEEVWLNDISEDAYELMKRNVMLNFDGELRESKGRAILKGEKTIVINHDDANRLMAERHRYFHFIDLDPFGSPMEFLDTALRSAKRRGILGVTATDGAPLCGAHPRACLRKYLAVPLRGELCHEVGTRILVGVIARYAAKYDLGIDVILAYYKDHYFRAFVKLKDGARKGDETLEKLGYIYFDDKTGKFELEQGFLPTRPNAYGPVWLGPLKDEKIVSKMVKEAESLSLARKKQALKLLKMIDQELDIPLFYDTHAIGRRLKIETKKVEEIISALREQGYEATRTHFSPTGIKTSAPYEVFIETIKRI”, “not failed”; in that of “MKQLTILGSTGSIGNSTLSVVRANPELFKVTALVAGRNVREMAQQCLEFSPRYAAMSDEHSAKSLRLLLAEQGSDTEVYSGETAACELAALDDVDQVMAAIVGIAGLPSTLAAIRAGKQVLLANKESLITCGKLFMDEVKRSRAQLLPIDSEHNAIFQSLPERIQRQLGYSSLNENGVSRIILTGSGGPFRETPLSQFSDVTPDQACAHPNWSMGRKISVDSATMMNKGLEYIEARWLFNASAEQIEVVLHPQSVIHSMVRYHDGSILAQMGTPDMRTPIAHAMAYPMRVSSGVAPLDFCKVGALTFTTPDYQRYPCLKLAIDACNAGQAATTALNAANEISVMAFLDSKIRFTDIEVINRTVVEGLLLSEPTSVEEVLVIDRKARDVAAQVIAKLNN”, “not failed”. Take “MSLSAQADARPTPAPSFSGVTVDGKPFSSASLKGKAYIVNFFATWCPPCRSEIPDMVQVQKTWASRGFTFVGIAVNEQLPNVKNYMKTQGIIYPVMMATPELIRAFNGYIDGGITGIPTSFVIDASGNVSGVIVGPRSKADFDRIVKMALGAKAATKEGHHHHHH”: the protein production entry was “not failed”.

As for “MDIHIKPINTFAHAEMDALYTMIFHFYEEYDPTHVITKESINDTIIHLTNHPESGSIQFVYDAENALVGYVILIKYWSNEYQGYLLFIDELYIVPDKRSLGYGRTCITLIEKTFHDIQALALEVSPKNTRAQAFYLQLGFLPNKNKTFIKIKY”, the protein production entry is “failed”. With “MGIDPVTHRATHKTKRVEATANTFKAVATEWLKEVHQKAVVEEHYNRNVRRLEQHAFPKLGRRPISEIEPSDILEPLRDIAKTGRRETAKRVKTLIGQVFRYTVSTGRAQRDMTADIRGILPALEHHHHHH” the entry was “failed”.
